Earlier results on one substance are cited in paper PMC11076503.

As usually defined, the Kd is the constant that tells how readily two partners part at equilibrium.

For this data set, the target named is Mpro (Severe acute respiratory syndrome coronavirus 2) (UniProt P0DTD1).

With Mpro (from UniProt P0DTD1), the Kd was 7 µM.
